From the nanobody polyreactivity screen of Harvey et al. (2022)

Assay: yeast display, Sf9 membrane polyspecificity reagent, FACS + sequencing; frameworks hold sequencing errors
Procedure, shortened: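 In a synthetic yeast display library (Saccharomyces cerevisiae BJ5465), nanobody expression was induced with galactose for 36–48 hours. FACS gates were set low and high (top ~1%) using anti-HA fluorescence for expression and streptavidin fluorescence for binding of the Sf9 membrane reagent. Each polyreactivity label is drawn from the gate of origin.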

Sequence	polyreactivity (PSR sort gate)
QVQLVESGGGLVQAGGSLRLSCAASGSTFYGYGMGWYRQAPGKEWELVAAITGSGDTTYYADSVKGRFTISRDNAKNTVYLQMNSLKPEDTAVYYCNARWHAEYDYWGQGTQVTVSS	low polyreactivity
QVQLVESGGGLVQAGGSLRLSCAASGSTFYGYGMGWYSQAPGKERELVAAITKSVGSTYYADSVNGRFTISRDNAKNTVYLQMNSLKPEDTAVYYCARSTRYRRGPSQYAGTYDYWGQGTQVTVSS	low polyreactivity
QVQLVESGGGLVQAGGSLRLSCAASGSTFYGYTMGWSRQAPGKERELVAVITSGGSTYYADSVKGRFTISRDNAKNTVYLQMNSLKPDDTAVYYCAQRYGYPAYGRPWRIGRTYDYWGQGTQVTVSS	low polyreactivity
QVQLVESGGGLVQAGGSLRLSCAASGSTFYHYAMGWYRQAPGKERELVAAISTGGSTYYADSVKGRFTISRDNAKNTVYLQMNSLKPEDTAVEYCNARYIGGYGYWGQGTQVTVSS	low polyreactivity
QVQLVESGGGLVQAGGSLRLSCAASGSTFYHYAMGWYRQAPGKERELVAAISTSGGRTYYADSVKGRFTISRDNAKNTVYLQMNSLKPEDTAVYYCAARSYRYYYGFDYWGQGTQVTVSS	low polyreactivity
QVQLVESGGGLVQAGGSLRLSCAASGSTFYIYDMGWYRQAPGKEREFVAAIDFSGSSTYADSVKGRFTISRDNAKNTVYFQINSLKPDDSAVFDCAAYQIYQYDGPYVYWGQGTQVTVSS	low polyreactivity
QVQLVESGGGLVQAGGSLRLSCAASGSTFYKNAMGWYRPAPGKERELVAAISGSGGRTYYADSVKGRFTISRDNAKNTVYLQMNSLKPEDTAVYYCNAARAYYSLYYGLDYWGQGTQVTVSS	high polyreactivity
QVQLVESGGGLVQAGGSLRLSCAASGSTFYKNAMGWYRQAPGKEREFVAAIRSGDSTNYADSVKGRFTISRDNAKNTVYIQMNSLKPEDSAVYYCARDRPGDYAGYDYWGQGSQVTVSS	low polyreactivity
QVQLVESGGGLVQAGGSLRLSCAASGSTFYKNAMGWYRQAPGKERELVAAITRSGGSTYYADSVKGRFTISRDNAKNTVYLQMNSLKPEDTAVYYCAYYPYGYDYWGQGTQVTVSS	high polyreactivity
QVQLVESGGGLVQAGGSLRLSCAASGSTFYKYAMGGYRQAPGKERELVASITSGGRTYYADSEKGRFTISRDNAKNTVYLQMNSLKPDDTAVYYCAKRYGRLTRYDYWGQGTQVTVSS	high polyreactivity
QVQLVESGGGLVQAGGSLRLSCAASGSTFYKYAMGRYREAPRKERELVASISRSGGSTSYADSVTGRFTISRDNAKNTVYLQMNSLTPEDTAVYYCAATWRQHPGSMGYWGQGTQVTVSS	high polyreactivity
QVQLVESGGGLVQAGGSLRLSCAASGSTFYKYAMGWYRQAPGKERELVAVITDGGSTTYADSVKGRFTISRDNAKNTVYLQMNSLKPEDTAVYYCAADYYLRKTRFESWGQGTQVTVSS	low polyreactivity
QVQLVESGGGLVQAGGSLRLSCAASGSTFYKYAMGWYRQAPGKERELVAVITKSGGSTYYADSVKGRFTISRDNEKNTVYLQMNSLKPEDTAVYYCAAEDHYGYNSGYDYWGQGTQVTVSS	high polyreactivity
QVQLVESGGGLVQAGGSLRLSCAASGSTFYKYGMGRNTQAHGKERELVAAISGSGDSTYYADSVKGRFTISRDNAKNSVYLQMNSLKPEDTAVYYCNAGPWCYLHEYDYWGQGTQVTVSS	low polyreactivity
QVQLVESGGGLVQAGGSLRLSCAASGSTFYKYTMGWYRQAPGKERELVAAISGSGTTTYYADSVKGRFTISRDNAKNTVYLQMNSLKPEDTAVYYCAARRFSPGSSGHGYWGQGTQVTVSS	high polyreactivity
QVQLVESGGGLVQAGGSLRLSCAASGSTFYKYTMGWYRQAPGKERELVAAISGSGTTTYYADSVKGRFTISRDNAKNTVYLQMNSLNPEDTAVYYCAASLYLYNSRITVRSHYYYWGQGTQVTVSS	high polyreactivity
QVQLVESGGGLVQAGGSLRLSCAASGSTFYLYAKVWYRQAPGKERELVAAISWSGGDTYYADSVKGRFTISRDKAKNTVYLQMNSLKPEDTAVYYCAAEISYSSPGSPRRRDYWGQGTQVTVSS	low polyreactivity
QVQLVESGGGLVQAGGSLRLSCAASGSTFYLYAMGWYRQAPGKEREFVAAISWSGGRTYYADSVKGRFTISRDNAKNTVYLQMNSLKPEDTAVYYCAAKPLFGTRDDYWGQGTQVTVSS	low polyreactivity
QVQLVESGGGLVQAGGSLRLSCAASGSTFYLYAMGWYRQAPGKERELVAAISWTGGSTTYADSVKGRFTISRDNAKNTVYLQMNSLKPEDTAVYYCAADEGLIDGRAWYGYWGQGTQVTVSS	low polyreactivity
QVQLVESGGGLVQAGGSLRLSCAASGSTFYLYDMGWYRQAPGKERELVATITSGTSTTYADSVKGRFTISRDNAKNTVYLQMISLKPEDTAVYYCNVYKPPTRGGVLEYGYWGQGTQVTVSS	low polyreactivity
QVQLVESGGGLVQAGGSLRLSCAASGSTFYLYTMGWYRLAPGKERELVAAISVSGGSTFYADSVKGRFSISRDNAKNTVYLQKNSLKPEDTAVYYSAADGYLHAGHWRTYGYYYWGQGTQVTVSS	low polyreactivity

Sequence	polyreactivity (PSR sort gate)
QVQLVESGGGLVQAGGSLRLSCAASGSTFYLYTMGWYRQAPGKERELVAAINRSGGRTYYADSVKGRFTISRDNAKNTVYLQMNSLKPEDTAVYYCATDSVTRGRSRGFDYWGQGTQVTVSS	high polyreactivity
QVQLVESGGGLVQAGGSLRLSCAASGSTFYNNAMGWYRQAPGKEREFVAAITLSGGRTYYADSVKGRFTISRDNAMNTVYLQMNSLKPEDTAVYYCAAKGTRRGKERNYWGQGTQVTVSS	high polyreactivity
QVQLVESGGGLVQAGGSLRLSCAASGSTFYNYAMGWYRPAPGNERELVAAIDTGGSTNYADSVKGRFTISRDNAKNTVYFQMNSLKPEVTALDYCNTVYLYGTHDYWGQGTQVTVSS	low polyreactivity
QVQLVESGGGLVQAGGSLRLSCAASGSTFYNYAMGWYRQAPGKEREFVAAITRSGGSTYYADSVKGRFSISRDNAKNTVYLQMNSLKPEDTAVYYCNAGGHWYYHRYRGYYWGQGTQVTVSS	high polyreactivity
QVQLVESGGGLVQAGGSLRLSCAASGSTFYNYAMGWYRQAPGKERELVAAIRNGGGTNYADSVKGRFTISRDNAKITVYLQMNSLKPEDTAVYYCNKAYGVSGPGVDYWGQGTQVTVSS	low polyreactivity
QVQLVESGGGLVQAGGSLRLSCAASGSTFYNYAMGWYRQAPGKERELVAAIRNGGGTNYADSVKGRFTISRDNAKNTVYLQMNSLKPEDTAVYYFNKAYGVSGPGVDYWGQGTQVTVSS	low polyreactivity
QVQLVESGGGLVQAGGSLRLSCAASGSTFYNYVMGWYRQAPAKERELVAAITSRGGRTYYADSVKGRFTISRDNAKNTVSLQMNSLKPEDTAVYYCARDRGYQSGYDYWGQGTQVTVSS	high polyreactivity
QVQLVESGGGLVQAGGSLRLSCAASGSTFYPNAMGWYRQAPGKERELVAAITTSGGSTYYADSVKGRCTISRDNAKNTVYLQMNSLKPEDTAVYYCAAEVRDRGWEPYGPIYDYWGQGTQVTVSS	high polyreactivity
QVQLVESGGGLVQAGGSLRLSCAASGSTFYPNARGWYRQAPGKERELVAAISWSGGRTYYADSEKGRFTISRDNAKNTVYLQMNSLKPEDTAVYYCYRYHRTSGRAKYDYWGQGTQVTVSS	high polyreactivity
QVQLVESGGGLVQAGGSLRLSCAASGSTFYPYAMGWYRQAPGKERELVAAISSRDGRTYYADSVKGRFTISRDNAKNTVYLQMNSLKPEDTAVYYCAASSFNNGHRYDYWGQGTQVTVSS	high polyreactivity
QVQLVESGGGLVQAGGSLRLSCAASGSTFYPYAMGWYRQAPGKERELVAAITYSGGSTYYADSVKGRFTISRDNAKNTVYLQMNSLKPDDTAVYYCATPYFSTPRVRGFDYWGQGTQVTVSS	low polyreactivity
QVQLVESGGGLVQAGGSLRLSCAASGSTFYPYAMGWYRQAPGKERELVAGISWSGGSTYYADSVKGRFTISRDNAKNTVYLQMNSLKPEDTAVYSCAVDVYWSVIYDYWGQGTQVTVSS	low polyreactivity
QVQLVESGGGLVQAGGSLRLSCAASGSTFYPYAMGWYRQAPGTEREFVAAITWSGGSTYYADSVKGRFTISRDNAKNTVYLQMNSLKPDDTAVYYCNAVVATSKYTDYYWGQGTQVTVSS	low polyreactivity
QVQLVESGGGLVQAGGSLRLSCAASGSTFYPYGMGWYRQAPGNERELVAAITDSGGSTYYADSVKGRFTISRDNAKNTVYLQMNSLKPEDTAVYYCAKTYWYPWRASLWHEYDYWGQGTQVTVSS	low polyreactivity
QVQLVESGGGLVQAGGSLRLSCAASGSTFYQYAMGWYRQAPGKERELVAVITGSGGSTYYADSVKGRFTISRDNAKNTVYLQMNSLKPEDTAVYYCAAGARYFIYRTTSLGGNYWGQGTQVTVSS	high polyreactivity
QVQLVESGGGLVQAGGSLRLSCAASGSTFYRNALGWYRQAPGKERELVARISSRGGRTSYADSVKGRFTISRDNAKNTVYFQMNSLKPEDTAVYYCAADYYVNRIQRYDYWGQGTQVTVSS	high polyreactivity
QVQLVESGGGLVQAGGSLRLSCAASGSTFYRNAMGAYRQAPGKDREFVAAISFRGGGTYADSVKGRCTISRDNANNTVYLQMNSLKPEDTAVYYCAADHLSYRRRYEYWGQGTQVTVSS	low polyreactivity
QVQLVESGGGLVQAGGSLRLSCAASGSTFYRNAMGWYRPAPGKERELVAAISQRGGRTYYADSVKGRFTISRDNAKNTVYLQMNSLKPEDTAVYYCNKFRGINHLYDMNYWGQGTQVTVSS	high polyreactivity
QVQLVESGGGLVQAGGSLRLSCAASGSTFYRNAMGWYRQAPGKEREFVADITLGGGSTYYADSVKGRFTISRDNAKNTVYLQMNSLTPEDTAVYYCAVVYWQLNYDYWGQGTQVTVSS	low polyreactivity
QVQLVESGGGLVQAGGSLRLSCAASGSTFYRNAMGWYRQAPGKERELVAAINSTDSTNYADSVKGLFTISRDNAKNTVYLQMNSLKPEDTAVYYCAAVGDNLATAEYDYWGQGTQVTLSS	low polyreactivity
